One molecule from article PMC13315578 can be followed below.

Common to all, as to conditions: protein: recombinant; tags: N-terminal 6xHis-TEV site; tRNA fold, annealed
Series [1] concerns the target T1, Min Elp3 E207A (Methanocaldococcus infernus, UniProt D5VRB9 1-534, E207A).
T1 sequence: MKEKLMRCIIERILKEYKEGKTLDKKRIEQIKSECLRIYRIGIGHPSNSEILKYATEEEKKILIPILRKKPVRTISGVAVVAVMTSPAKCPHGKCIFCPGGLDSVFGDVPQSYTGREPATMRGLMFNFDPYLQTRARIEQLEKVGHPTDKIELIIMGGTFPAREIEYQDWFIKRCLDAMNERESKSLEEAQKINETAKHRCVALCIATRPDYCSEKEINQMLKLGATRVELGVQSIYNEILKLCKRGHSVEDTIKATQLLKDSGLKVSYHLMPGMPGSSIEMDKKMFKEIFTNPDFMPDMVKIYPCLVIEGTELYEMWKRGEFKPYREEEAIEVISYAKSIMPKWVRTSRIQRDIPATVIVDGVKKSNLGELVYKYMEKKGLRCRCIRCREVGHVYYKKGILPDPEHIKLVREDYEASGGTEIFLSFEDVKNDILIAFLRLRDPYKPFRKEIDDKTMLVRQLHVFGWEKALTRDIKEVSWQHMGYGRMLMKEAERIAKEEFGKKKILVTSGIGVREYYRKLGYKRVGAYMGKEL
The experiment in a line: EMSA; similar affinity to WT; EMSA: 250 nM tRNA, 0-20 uM Elp3, 100 mM HEPES pH 7.5, 750 mM NaCl, 25 mM DTT, 20 °C 30 min; 5% TBE gel at 4 °C. In general terms: A gel shift assay detects complexes by their altered migration in electrophoresis.

Series [2] concerns the target T2, Min Elp3 K302A (Methanocaldococcus infernus, UniProt D5VRB9 1-534, K302A).
T2 sequence: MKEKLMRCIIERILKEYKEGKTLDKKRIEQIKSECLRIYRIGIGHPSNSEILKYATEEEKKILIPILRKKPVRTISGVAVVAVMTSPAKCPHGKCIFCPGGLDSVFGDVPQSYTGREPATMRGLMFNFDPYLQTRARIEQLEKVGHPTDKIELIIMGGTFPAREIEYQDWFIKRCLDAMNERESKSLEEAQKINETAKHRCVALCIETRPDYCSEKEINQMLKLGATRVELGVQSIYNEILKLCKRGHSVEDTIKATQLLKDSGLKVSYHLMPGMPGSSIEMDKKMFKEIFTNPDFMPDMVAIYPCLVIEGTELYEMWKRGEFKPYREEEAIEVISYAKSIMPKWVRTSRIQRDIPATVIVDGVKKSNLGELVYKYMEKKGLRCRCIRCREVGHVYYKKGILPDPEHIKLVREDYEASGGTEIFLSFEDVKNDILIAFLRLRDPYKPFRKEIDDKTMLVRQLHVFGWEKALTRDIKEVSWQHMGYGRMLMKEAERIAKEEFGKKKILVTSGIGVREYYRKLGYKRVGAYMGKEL
Described as above.

In series [3] the target is T3, Min Elp3 I154W (Methanocaldococcus infernus, UniProt D5VRB9 1-534, I154W).
T3 sequence: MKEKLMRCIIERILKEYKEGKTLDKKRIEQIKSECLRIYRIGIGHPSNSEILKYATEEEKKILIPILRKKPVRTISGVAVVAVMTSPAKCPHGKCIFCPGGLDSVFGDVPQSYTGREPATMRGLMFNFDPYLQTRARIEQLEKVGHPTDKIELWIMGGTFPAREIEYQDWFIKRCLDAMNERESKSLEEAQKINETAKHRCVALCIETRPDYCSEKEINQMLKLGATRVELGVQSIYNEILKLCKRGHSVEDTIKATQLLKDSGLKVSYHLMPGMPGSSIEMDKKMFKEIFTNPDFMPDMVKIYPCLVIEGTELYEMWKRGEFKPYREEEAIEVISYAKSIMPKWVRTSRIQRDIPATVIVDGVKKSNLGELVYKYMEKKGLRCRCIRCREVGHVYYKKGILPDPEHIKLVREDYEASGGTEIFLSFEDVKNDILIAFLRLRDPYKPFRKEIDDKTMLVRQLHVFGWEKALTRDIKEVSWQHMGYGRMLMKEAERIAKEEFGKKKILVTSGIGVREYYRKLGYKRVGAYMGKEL
In words: EMSA; comparable affinity to WT; EMSA: 250 nM tRNA, 0-20 uM Elp3, 100 mM HEPES pH 7.5, 750 mM NaCl, 25 mM DTT, 20 °C 30 min; 5% TBE gel at 4 °C.

Series [4] has as its target T4, Min Elp3 M156W (Methanocaldococcus infernus, UniProt D5VRB9 1-534, M156W).
T4 sequence: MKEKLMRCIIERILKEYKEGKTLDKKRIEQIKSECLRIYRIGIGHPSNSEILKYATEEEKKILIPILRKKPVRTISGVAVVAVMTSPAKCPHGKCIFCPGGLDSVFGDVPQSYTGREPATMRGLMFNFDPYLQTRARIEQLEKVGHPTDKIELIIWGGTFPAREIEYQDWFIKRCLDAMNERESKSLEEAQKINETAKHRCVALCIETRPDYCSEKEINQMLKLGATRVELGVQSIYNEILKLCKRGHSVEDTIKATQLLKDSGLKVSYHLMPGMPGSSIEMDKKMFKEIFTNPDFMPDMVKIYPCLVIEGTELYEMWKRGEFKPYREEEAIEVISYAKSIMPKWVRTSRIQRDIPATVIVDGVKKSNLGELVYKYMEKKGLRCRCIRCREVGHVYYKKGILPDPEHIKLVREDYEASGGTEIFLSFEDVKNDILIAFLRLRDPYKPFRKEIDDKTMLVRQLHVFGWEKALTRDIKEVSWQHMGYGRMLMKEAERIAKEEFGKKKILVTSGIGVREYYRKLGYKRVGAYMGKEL
The series is described as above.

For series [5], the target named is T5, Min Elp3 Y304A (Methanocaldococcus infernus, UniProt D5VRB9 1-534, Y304A).
T5 sequence: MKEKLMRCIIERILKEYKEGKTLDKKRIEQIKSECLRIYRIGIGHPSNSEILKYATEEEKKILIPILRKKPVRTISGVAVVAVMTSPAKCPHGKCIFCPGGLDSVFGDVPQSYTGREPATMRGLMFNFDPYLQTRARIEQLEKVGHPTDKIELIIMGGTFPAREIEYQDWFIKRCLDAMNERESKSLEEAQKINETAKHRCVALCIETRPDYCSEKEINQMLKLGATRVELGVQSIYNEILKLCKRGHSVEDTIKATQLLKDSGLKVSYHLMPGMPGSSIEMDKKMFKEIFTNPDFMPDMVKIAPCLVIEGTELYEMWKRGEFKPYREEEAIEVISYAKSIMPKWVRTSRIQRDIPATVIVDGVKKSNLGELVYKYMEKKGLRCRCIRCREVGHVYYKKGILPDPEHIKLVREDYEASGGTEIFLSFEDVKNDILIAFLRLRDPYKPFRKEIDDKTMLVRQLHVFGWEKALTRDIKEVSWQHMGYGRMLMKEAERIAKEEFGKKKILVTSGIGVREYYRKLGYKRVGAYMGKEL
The experiment in a line: EMSA; EMSA: 250 nM tRNA, 0-20 uM Elp3, 100 mM HEPES pH 7.5, 750 mM NaCl, 25 mM DTT, 20 °C 30 min; 5% TBE gel at 4 °C.

B1: tRNA ArgUCU (structured_RNA)
RNA: GGACCCGUAGCCUAGCCUGGAUAGGGCACCGGCCUUCUAAGCCGGGGGUCGGGGGUUCAAAUCCCCCCGGGUCCGCCA
Regarding B1, the binding result in series [1], in series [2], in series [3] and in series [4] was “binds” in each case. Further, the binding signal in series [5] is ~1.5 fold KD increase vs WT.
